The source of these data is US20260250410A1 (SICHUAN HUIYU PHARMACEUTICAL, published 2026).

Positions count from the first letter of the chain named.

For experiment [1], the target named is T1, human CDCP1 on tumor cells (human, UniProt Q9H5V8 30-836).
T1 construct: whole, on cells; cell line is named under assay or readout
T1 sequence (looked up): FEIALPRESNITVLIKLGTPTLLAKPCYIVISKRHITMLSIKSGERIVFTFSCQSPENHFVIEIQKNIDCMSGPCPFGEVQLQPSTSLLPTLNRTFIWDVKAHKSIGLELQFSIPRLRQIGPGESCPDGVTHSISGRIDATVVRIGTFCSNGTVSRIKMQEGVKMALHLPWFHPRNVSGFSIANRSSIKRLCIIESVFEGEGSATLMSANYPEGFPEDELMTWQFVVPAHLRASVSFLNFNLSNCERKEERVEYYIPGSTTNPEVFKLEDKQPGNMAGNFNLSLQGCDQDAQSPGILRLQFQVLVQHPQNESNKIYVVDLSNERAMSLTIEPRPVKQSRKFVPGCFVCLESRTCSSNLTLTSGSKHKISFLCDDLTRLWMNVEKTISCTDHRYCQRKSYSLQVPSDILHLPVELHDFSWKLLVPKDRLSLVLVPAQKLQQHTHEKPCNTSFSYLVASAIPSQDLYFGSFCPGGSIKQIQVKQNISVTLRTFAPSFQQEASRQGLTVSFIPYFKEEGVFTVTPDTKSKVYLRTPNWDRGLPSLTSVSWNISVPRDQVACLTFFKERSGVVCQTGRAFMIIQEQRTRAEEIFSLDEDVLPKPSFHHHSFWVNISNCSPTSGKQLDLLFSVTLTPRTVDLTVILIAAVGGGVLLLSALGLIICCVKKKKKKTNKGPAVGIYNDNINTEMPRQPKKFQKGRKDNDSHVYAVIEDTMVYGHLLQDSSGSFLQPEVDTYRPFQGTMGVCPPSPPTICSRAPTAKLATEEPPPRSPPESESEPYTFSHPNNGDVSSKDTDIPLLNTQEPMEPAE
Put plainly: laser confocal microscopy, HCC1806 cells, dye-labeled antibody. From the text:
The lysosomes were labeled with red fluorescence, and the relative position changes and colocalization of green fluorescence and red fluorescence in the cells were detected to determine whether the antibodies were colocalized with lysosomes after endocytosis into the cells.

The target in experiment [2] is T1, human CDCP1 on tumor cells. Nature of the experiment: cell-based or functional assay.
In experiment [3] the target is T1, human CDCP1 on tumor cells. Nature of the experiment: cell-based or functional assay. The source holds these as a separate data set.
In experiment [4] the target is T2, HuCDCP1-B (human, UniProt Q9H5V8 343-667).
T2 construct: range 343-667; expressed in HEK-293T, purified by Fc/his tag; also called human CDCP1-B; membrane-proximal region of CDCP1; not shown: Fc or his tag
T2 sequence (looked up): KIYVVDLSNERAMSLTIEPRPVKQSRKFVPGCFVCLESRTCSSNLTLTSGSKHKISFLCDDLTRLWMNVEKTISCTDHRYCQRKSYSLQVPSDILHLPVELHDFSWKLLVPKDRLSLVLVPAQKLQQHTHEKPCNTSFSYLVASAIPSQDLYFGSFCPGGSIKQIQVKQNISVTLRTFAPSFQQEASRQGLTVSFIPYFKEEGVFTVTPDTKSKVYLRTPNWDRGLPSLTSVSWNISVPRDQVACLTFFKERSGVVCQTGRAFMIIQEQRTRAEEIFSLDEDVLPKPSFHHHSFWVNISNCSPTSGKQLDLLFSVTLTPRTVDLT
Put plainly: ELISA, coated antigen. As for the experimental part: (§1) The candidate antibodies obtained from Example 6 were subjected to gene cloning, constructed into an expression vector for a small amount of expression in CHO cells, and purified with an Fc affinity column (AT Protein A Diamond Plus. No. AA402312). Antibody purity was analyzed by HPLC and determined by Nanodrop. High-throughput affinity assay was carried out for a small amount of antibodies by Caterra. […] At the same time, 2 μg/ml antigen human CDCP1-C and 2 μg/ml human CDCP1-B were used for coating, and the antigen-antibody binding capacity was tested by ELISA for verification.
A general note: An ELISA detects its analyte on a solid surface through an enzyme-linked reagent.

Experiment [5] addresses T3, HuCDCP1-C (human, UniProt Q9H5V8 30-667).
T3 construct: range 30-667; expressed in HEK-293T, purified by Fc/his tag; also called human CDCP1-C; full-length extracellular domain of human CDCP1; not shown: Fc or his tag
T3 sequence (looked up): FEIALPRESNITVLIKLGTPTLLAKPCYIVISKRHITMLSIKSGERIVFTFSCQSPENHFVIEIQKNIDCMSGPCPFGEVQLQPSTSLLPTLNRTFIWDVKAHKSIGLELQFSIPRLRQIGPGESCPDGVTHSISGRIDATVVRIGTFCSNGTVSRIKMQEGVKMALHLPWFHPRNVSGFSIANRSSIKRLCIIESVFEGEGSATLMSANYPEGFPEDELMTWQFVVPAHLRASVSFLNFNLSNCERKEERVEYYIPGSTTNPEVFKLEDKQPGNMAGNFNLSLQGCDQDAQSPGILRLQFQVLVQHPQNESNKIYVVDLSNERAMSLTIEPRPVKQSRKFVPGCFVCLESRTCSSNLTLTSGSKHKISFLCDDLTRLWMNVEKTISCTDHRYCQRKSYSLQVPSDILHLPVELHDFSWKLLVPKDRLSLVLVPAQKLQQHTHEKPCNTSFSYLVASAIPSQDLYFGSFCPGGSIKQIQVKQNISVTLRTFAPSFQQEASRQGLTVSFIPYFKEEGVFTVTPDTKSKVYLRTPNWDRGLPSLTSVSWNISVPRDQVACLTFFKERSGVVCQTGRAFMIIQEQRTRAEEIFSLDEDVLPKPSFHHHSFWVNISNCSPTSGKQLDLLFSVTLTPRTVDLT
Put plainly: ELISA, coated antigen. The procedure:
as §1

For experiment [6], the target named is T4, huCDCP1-his (human, UniProt Q9H5V8 30-667, limits assumed).
T4 construct: also called human CDCP1 antigen; not shown: his tag
T4 sequence (looked up): T3 sequence (looked up)
Nature of the experiment: SPR (Caterra), antigen immobilized. As for the experimental part:
as §1

For experiment [7], the target named is T1, human CDCP1 on tumor cells. Put plainly: flow cytometry, MDA-MB-231 cells, 1.5 µg/ml. The procedure:
Flow cytometry was used to detect the binding capacity of antibody to tumor cells. MDA-MB-231 cells were subjected to digestion with 5 mM EDTA, centrifuged, and counted, the cells were resuspended with FACS buffer (PBS+2% FBS). Cell density was adjusted to 4×10⁵/ml, 50 μL (2×10⁴ tumor cells) were added per well, an Fc blocker (Human TruStain FcX™, Biolegend, 422302) was added for blocking at room temperature for 10 mins, then the antibody to be tested was added at a final concentration of 1.5 μg/ml. The mixture was incubated out at 4° C. for 30 mins, centrifuged and washed, a secondary antibody (PE anti-human IgG Fc Antibody, Biolegend, 410708) was added for incubation, and then detection was performed using a flow cytometer. Geo-MFI was used as the preliminary criterion for determining antibody-cell binding.

B1: 1CP-064 (antibody, V domains shown)
VH: EVKLVESGPGILQPSQTLSLTCSFSGFSLSTSGMGVGWIRQPSGKGLEWLAHIWWDDVKRYNPALKSRLTISKDTSSSQVFLKIASVDTADTATYYCARMGGKVPWFAYWGQGTTVTVSS
VL: DVVMTQTPASLAVSLGQRATISCRASESVDSYGNSFMHWYQQKPGQPPKLLIYLASNLESGVPARFSGSGSRTDFTLTIDPVEADDAATYYCQQNNEDPWTFGGGTKLEIK
notes: murine hybridoma mAb
Consider B1, for which the binding result in experiment [1] is reported as “binds”.

B2: 1CP-062 (antibody, V domains shown)
VH: EVKLVESGPGLVAPSQSLSITCTVSGFSLTTYGVHWVRQPPGKGLEWLVVIWSDGNTTYNSALKSRLSINKDNSKSQVFLKMNSLQTDDTAMYYCAKNYRNYDYAMDYWGQGTTVTVSS
VL: B1 VL with V2I, L54R, V62I, D80N, A87V, N95S, W100Y
notes: murine hybridoma mAb
Regarding B2, the binding result in experiment [1] is reported as “binds”.

B3: 1CP-125-MMAE (antibody, human IgG1, kappa, V domains shown)
VH: QVQLVQSGAEVKKPGASVKVSCKASGYNFISYWLHWVRQAPGQGLEWMGGIYPGNTDTTYNQKFKGRVTMTADTSTSTVYMELSSLRSEDTAVYYCIRYDYDRGMDYWGQGTLVTVSS
VL: DIQMTQSPSSLSASVGDRVTITCRASEDIYYRLAWYQQKPGKAPKLLISGATALETGVPSRFSGSGSGKDYTFTISSLQPEDIATYYCQHYWNIPWTFGQGTKVEIKR
modifications: vc-MMAE coupled after reduction, sites not stated; DAR 4.3
Consider B3, for which the “IC50 (nM), killing of HCC1806 cells (120 h), CellTiter-Glo” value (from here on “IC50 (nM), killing of HCC1806 cells”) in experiment [2] was 0.272 nM. Besides, the “IC50 (nM), killing of HCT116 cells (120 h), CellTiter-Glo” value (from here on “IC50 (nM), killing of HCT116 cells”) in experiment [3] came out at 0.668 nM.

B4: SB5 (antibody, V domains shown)
VH: QVQLRESGPGLVAPSQSLSITCTVSGFSLTDFGVNWVRQPPGKGLEWLGIIWANGRIEYNSALKSRLSISKDNSRSQVFLKLNSLQTDDTARYYCARDHDYDVEAMDYWGQGTSVTVSA
VL: QIVLTQSPAIKSASPGEKVTMTCSASSSVIYMHWYQQKSGSSPKRWIYDTSKLASGVPVRFSGSGSGTSYSLTISTMEAEDAATYYCQQWSSYPPTFGGGTKVEIK
notes: single B cell antibody, expressed in CHO
For orientation: EC50 means the concentration that produces a half-maximal response. As a reminder, the Kd is a measure of binding affinity in units of concentration. The low end stands for higher affinity, the high end for lower affinity. With B4, the EC50 is 0.208 nM in experiment [4] and 0.413 nM in experiment [5]. This molecule also yielded a Kd in experiment [6] of 0.835 nM.

B5: 1CP-063 (antibody, V domains shown)
VH: EVNLKESGPELVKPGASVRISCKASGYTFTSYYIHWVKQRPGQGLEWIGWIYPGNVNSKYNEKFKGKVTLTADKSSITAYMQLSSLTSEDSAVYFCAREDYGHYYAMDYWGQGTTVTVSS
VL: DIVMTQSPSSMYASLGERVTITCKASQDIKSYLSWYQQKPWKSPKTLIYYATSLADGVPSRFSGSGSGQDYSLTISSLESDDTATYYCLQYGESPWTFGGGTKLEIK
notes: murine hybridoma mAb
On to B5, for which the binding result in experiment [1] is “binds”.

B6: SB9 (antibody, V domains shown)
VH: DVKLVESGGGLVKPGGSLKLSCAASGFTFSSFTMSWVRQTPEKRLEWVATISSSGSYTYYPDSVKGRFTISRDNAKNTLYLQMSSLKSEDTAMYYCTSPDYYGRSYGYFDYWGQGTTLTVSS
VL: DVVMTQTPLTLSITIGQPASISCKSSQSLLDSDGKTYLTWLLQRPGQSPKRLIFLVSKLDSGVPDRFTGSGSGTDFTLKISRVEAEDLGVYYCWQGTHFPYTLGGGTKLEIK
notes: as for B4
Turning to B6, the binding result in experiment [7] is on record as “binds”.

B7: SB8 (antibody, V domains shown)
VH: QVTLKESGPGILKPSQTLSLTCSFSGFSLSTSGVGVGWIRQPSGKGLEWLAHIWWDDEKYYNPSLKSHFTISKDTSRNQVFLKITSVDTADTATYYCVKEGDGMDYWGQGTSVTVSS
VL: QAVVTQESALTTSPGETVTLTCRSSTGAVATSNYANWVQEKPDHLFTGLIGGTNNRVPGVPARFSGSLIGDKAALTITGAQTEDEAIYFCALWYSNHWVFGGGTKLTVL
notes: as for B4
With B7, the binding result in experiment [7] is listed as “binds”.

B8: 1CP-117-MMAE (antibody, human IgG1, kappa, V domains shown)
VH: QVQLVQSGSELKKPGASVKVSCKASGYTLTDFSMHWVRQAPGQGLEWMGWINTETGAPTYADDFKGRFVLSLDTSVSTAYLQISSLKAEDTAVYYCSRGRDYDPHFDYWGQGTLVTVSS
VL: EIVLTQSPATLSLSPGERATLSCRASQSISDFLHWYQQKPGQSPRLLIKYASQSISGIPARFSGSGSGSDFTLTISSVEPEDFAVYYCQSAHSFPYTFGQGTKLEIKR
modifications: vc-MMAE coupled after reduction, sites not stated; DAR 4.8
For the molecule B8, the “IC50 (nM), killing of HCC1806 cells” value in experiment [2] was 0.894 nM. Moreover, in experiment [3], the “IC50 (nM), killing of HCT116 cells” value turned out to be 1.51 nM.

B9: 1CP-065 (antibody, V domains shown)
VH: EVTLKESGAELVRPGALVKLSCKASGFNIKDYYMHWVKQRPEQGLEWIGWIDPENDNTIYDPKFQGKASITADTSSNTAYLQLSSLTSEDTAVYYCARFYGSYYYAMDYWGQGTTVTVSS
VL: DIVMTQSPKFMSTSVGDRVSITCKASQDVSTAVTWYQQKPGQSPKLLIYWASTRHTGVPDRFTGSGSGTDYTLTISSVQAEDLALYYCQQHYSTPYTFGGGTKLEIK
notes: murine hybridoma mAb
Regarding B9, in experiment [1], the binding result was “binds”.

B10: 1CP-152-MMAE (antibody, human IgG1, kappa, V domains shown)
VH: EVQLVESGGGLVQPGRSLRLSCTTSGLTFTHYHMSWVRQAPGKGLEWVAIIRNKAYGYTTDYSASVRGRFTISRDDSKSILYLQMNSLKTEDTAVYYCVREGGYGYDGTFAYWGQGTLVTVSS
VL: DIQMTQSPSSLSASVGDRVTITCRASESVDNYGISFMNWFQQKPGQAPKLLIYAASNQGSGVPSRFSGSGSGTDFTLTISSMQPEDFATYYCQQSKEVPRTFGGGTKVEIKR
modifications: vc-MMAE coupled after reduction, sites not stated; DAR 4.5
For B10, in experiment [2], the “IC50 (nM), killing of HCC1806 cells” value was 0.734 nM. Also, the “IC50 (nM), killing of HCT116 cells” value in experiment [3] worked out at 1.27 nM.
